The values below are quoted from earlier work in paper PMC10952613.

The term pKd denotes the Kd on a negative log10 scale, so that one unit is a factor of ten.

For this series, the target named is EGFR (Homo sapiens) (UniProt P00533).

pKd: −log10 of the molar value. “And” between values parts separate entries of the source, which are not always exact repeats. Equal values may be shown once.

On to EGF (from UniProt P01133), for which the pKd was > 9.00 and < 8.00.
